Where a chain is given by its changes, count along the chain named.

In this experiment the target is T1, Hsp90 from S. oneidensis (Hsp90So), purified, non-labeled (S. oneidensis, UniProt Q8EFF7 1-637).
T1 sequence (looked up): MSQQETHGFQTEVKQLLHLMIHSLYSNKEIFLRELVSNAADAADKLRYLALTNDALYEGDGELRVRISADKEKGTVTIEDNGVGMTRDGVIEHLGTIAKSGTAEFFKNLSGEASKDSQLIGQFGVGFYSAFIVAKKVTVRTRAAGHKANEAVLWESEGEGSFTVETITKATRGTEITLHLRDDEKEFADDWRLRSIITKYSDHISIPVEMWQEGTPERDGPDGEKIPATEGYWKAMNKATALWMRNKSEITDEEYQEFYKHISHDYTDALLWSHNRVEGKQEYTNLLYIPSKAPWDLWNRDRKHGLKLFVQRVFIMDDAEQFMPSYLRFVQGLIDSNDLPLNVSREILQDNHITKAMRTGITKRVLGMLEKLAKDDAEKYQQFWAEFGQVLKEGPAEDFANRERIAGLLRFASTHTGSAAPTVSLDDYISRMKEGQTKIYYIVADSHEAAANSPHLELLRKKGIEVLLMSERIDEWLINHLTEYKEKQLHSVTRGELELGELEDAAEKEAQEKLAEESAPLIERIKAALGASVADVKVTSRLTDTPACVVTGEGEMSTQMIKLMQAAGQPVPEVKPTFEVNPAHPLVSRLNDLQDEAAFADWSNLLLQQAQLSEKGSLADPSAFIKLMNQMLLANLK
The experiment can be described thus: MST.

B1: TilS from S. oneidensis (TilSSo), purified, with 6-His tag (natural protein, UniProt Q8EGF9 1-464, looked up)
chain: MTAQDLSVHIARWLDSLPLQAGSKLVLAYSGGVDSEVLAYGLSEYAKQRPDLRYQLIYVHHGLSPNADNWAKHCQARAAIYGLPVTVERVQLILGPRVSVEAEARKARYQAILPHLNPQDILLTAHHEDDQLETILLALKRGQGPKGLAAMGQIQPLSLADKGSCLQVRPLLDISREMIETFAQTRQLVHIEDESNQDDKYDRNFLRLEIIPRLKARWPSIATTASRSAQLCAEQQAIVETEVSERLPKLLVKAPVTEQTVLKLSELAAQPIEWQGILLRGFIESQEFSLPSYVQLQQMLQQLIHAKEDAKVHIRINDCVLRRFAGMLYLDSGETLSTALHITARDLHQEILTLLTQASAMVEDKIVPFALVTTGPRLRLPKADEVVSLGYGLPGQFRCQPHFRDKGRELKKLWQECAVPPWLRAEVGFLFYNDKLVMAFGLWVEKAFCAQGDEIGLSYLIANP
modifications: RED-tris-NTA 2nd generation dye (NanoTemper) on the 6-His tag
As a reminder, the Kd is the free concentration of one partner at which half of the binding sites on the other are occupied at equilibrium, for simple one-to-one binding. Lower therefore signals tighter binding. Molecule B1 yielded a Kd of 1090 nM.

B2: TilSSoL340P, purified (natural protein, S. oneidensis, UniProt Q8EGF9 1-464, looked up)
chain: B1 chain with L340P
modifications: RED-tris-NTA 2nd generation dye (NanoTemper)
Consider B2, for which the binding result is “binds”.

The values are drawn from publication doi:10.1101/2025.07.01.662558 (bioRxiv, 2025).
